We go through 39 variants from the Human Domainome abundance scans (Beltran et al. 2025).

± gives the uncertainty stated by the source.

First the molecules themselves.
B1: Nuclear receptor subfamily 1 group D member 2, residues 103 to 171; numbered along this chain, Q14995 (parent)
chain: CKVCGDVASGFHYGVHACEGCKGFFRRSIQQNIQYKKCLKNENCSIMRMNRNRCQQCRFKKCLSVGMSR

In this data set the parent is B1. The data set can be described thus: abundance fitness (aPCA) (normalised: wild type 0, dead -1); higher = more abundant; growth selection in yeast, the domain comes from the species named. As to conditions: Homo sapiens.
Take CKVCGDVASGFHYGVMACEGCKGFFRRSIQQNIQYKKCLKNENCSIMRMNRNRCQQCRFKKCLSVGMSR [H16M]: the abundance fitness is 0.123 ± 0.079.
In the case of CKVCGDVASGFHYGVCACEGCKGFFRRSIQQNIQYKKCLKNENCSIMRMNRNRCQQCRFKKCLSVGMSR [H16C], the abundance fitness was -0.411 ± 0.12.
For the variant CKVCGDVASGFHYGVYACEGCKGFFRRSIQQNIQYKKCLKNENCSIMRMNRNRCQQCRFKKCLSVGMSR [H16Y], the abundance fitness was -0.096 ± 0.075.
Take CKVCGDVASGFHYGVTACEGCKGFFRRSIQQNIQYKKCLKNENCSIMRMNRNRCQQCRFKKCLSVGMSR [H16T]: the abundance fitness was -0.1 ± 0.12.
With CKVCGDVASGFHYGVDACEGCKGFFRRSIQQNIQYKKCLKNENCSIMRMNRNRCQQCRFKKCLSVGMSR [H16D] the figure was 0.264 ± 0.098; with CKVCGDVASGFHYGVRACEGCKGFFRRSIQQNIQYKKCLKNENCSIMRMNRNRCQQCRFKKCLSVGMSR [H16R], -0.162 ± 0.067.
On to CKVCGDVASGFHYGVGACEGCKGFFRRSIQQNIQYKKCLKNENCSIMRMNRNRCQQCRFKKCLSVGMSR [H16G], for which the abundance fitness is -0.412 ± 0.073.
The same measure for CKVCGDVASGFHYGVFACEGCKGFFRRSIQQNIQYKKCLKNENCSIMRMNRNRCQQCRFKKCLSVGMSR [H16F]: -0.062 ± 0.16; for CKVCGDVASGFHYGVEACEGCKGFFRRSIQQNIQYKKCLKNENCSIMRMNRNRCQQCRFKKCLSVGMSR [H16E]: 0.219 ± 0.082; for CKVCGDVASGFHYGVNACEGCKGFFRRSIQQNIQYKKCLKNENCSIMRMNRNRCQQCRFKKCLSVGMSR [H16N]: -0.297 ± 0.19.
With CKVCGDVASGFHYGVAACEGCKGFFRRSIQQNIQYKKCLKNENCSIMRMNRNRCQQCRFKKCLSVGMSR [H16A], the abundance fitness is -0.169 ± 0.055.
In the case of CKVCGDVASGFHYGVPACEGCKGFFRRSIQQNIQYKKCLKNENCSIMRMNRNRCQQCRFKKCLSVGMSR [H16P], the abundance fitness was -0.085 ± 0.091.
On to CKVCGDVASGFHYGVIACEGCKGFFRRSIQQNIQYKKCLKNENCSIMRMNRNRCQQCRFKKCLSVGMSR [H16I], for which the abundance fitness was -0.306 ± 0.15.
The same measure for CKVCGDVASGFHYGVLACEGCKGFFRRSIQQNIQYKKCLKNENCSIMRMNRNRCQQCRFKKCLSVGMSR [H16L]: 0.098 ± 0.056; for CKVCGDVASGFHYGVVACEGCKGFFRRSIQQNIQYKKCLKNENCSIMRMNRNRCQQCRFKKCLSVGMSR [H16V]: -0.008 ± 0.059; for CKVCGDVASGFHYGVKACEGCKGFFRRSIQQNIQYKKCLKNENCSIMRMNRNRCQQCRFKKCLSVGMSR [H16K]: -0.501 ± 0.15.
As to CKVCGDVYSGFHYGVHACEGCKGFFRRSIQQNIQYKKCLKNENCSIMRMNRNRCQQCRFKKCLSVGMSR [A8Y], the abundance fitness was -0.782 ± 0.3.
CKVCGDVQSGFHYGVHACEGCKGFFRRSIQQNIQYKKCLKNENCSIMRMNRNRCQQCRFKKCLSVGMSR [A8Q]: the abundance fitness is -0.842 ± 0.23.
On to CKVCGDVVSGFHYGVHACEGCKGFFRRSIQQNIQYKKCLKNENCSIMRMNRNRCQQCRFKKCLSVGMSR [A8V], for which the abundance fitness is -0.798 ± 0.15.
With CKVCGDVSSGFHYGVHACEGCKGFFRRSIQQNIQYKKCLKNENCSIMRMNRNRCQQCRFKKCLSVGMSR [A8S] the figure was -0.265 ± 0.073; with CKVCGDVRSGFHYGVHACEGCKGFFRRSIQQNIQYKKCLKNENCSIMRMNRNRCQQCRFKKCLSVGMSR [A8R], -0.897 ± 0.1; with CKVCGDVTSGFHYGVHACEGCKGFFRRSIQQNIQYKKCLKNENCSIMRMNRNRCQQCRFKKCLSVGMSR [A8T], -0.363 ± 0.15.
With CKVCGDVASGFQYGVHACEGCKGFFRRSIQQNIQYKKCLKNENCSIMRMNRNRCQQCRFKKCLSVGMSR [H12Q] the figure was -0.568 ± 0.2.
For the variant CKVCGDVASGFEYGVHACEGCKGFFRRSIQQNIQYKKCLKNENCSIMRMNRNRCQQCRFKKCLSVGMSR [H12E], the abundance fitness is -0.587 ± 0.2.
Take CKVCGDVASGFFYGVHACEGCKGFFRRSIQQNIQYKKCLKNENCSIMRMNRNRCQQCRFKKCLSVGMSR [H12F]: the abundance fitness was -0.514 ± 0.16.
Turning to CKVCGDVASGFSYGVHACEGCKGFFRRSIQQNIQYKKCLKNENCSIMRMNRNRCQQCRFKKCLSVGMSR [H12S], the abundance fitness was -0.301 ± 0.077.
On to CKVCGDVASGFNYGVHACEGCKGFFRRSIQQNIQYKKCLKNENCSIMRMNRNRCQQCRFKKCLSVGMSR [H12N], for which the abundance fitness was -0.161 ± 0.17.
For the variant CKVCGDVASGFIYGVHACEGCKGFFRRSIQQNIQYKKCLKNENCSIMRMNRNRCQQCRFKKCLSVGMSR [H12I], the abundance fitness was -0.747 ± 0.33.
Take CKVCGDVASGFWYGVHACEGCKGFFRRSIQQNIQYKKCLKNENCSIMRMNRNRCQQCRFKKCLSVGMSR [H12W]: the abundance fitness was 0.033 ± 0.08.
With CKVCGDVASGFTYGVHACEGCKGFFRRSIQQNIQYKKCLKNENCSIMRMNRNRCQQCRFKKCLSVGMSR [H12T], the abundance fitness is -0.546 ± 0.15.
For the variant CKVCGDVASGFRYGVHACEGCKGFFRRSIQQNIQYKKCLKNENCSIMRMNRNRCQQCRFKKCLSVGMSR [H12R], the abundance fitness was -0.732 ± 0.13.
With CKVCGDVASGFDYGVHACEGCKGFFRRSIQQNIQYKKCLKNENCSIMRMNRNRCQQCRFKKCLSVGMSR [H12D], the abundance fitness is -0.44 ± 0.13.
With CKVCGDVASGFGYGVHACEGCKGFFRRSIQQNIQYKKCLKNENCSIMRMNRNRCQQCRFKKCLSVGMSR [H12G] the figure was -0.421 ± 0.075.
CKVCGDVASGFYYGVHACEGCKGFFRRSIQQNIQYKKCLKNENCSIMRMNRNRCQQCRFKKCLSVGMSR [H12Y]: the abundance fitness is -0.253 ± 0.12.
With CKVCGDVASGFAYGVHACEGCKGFFRRSIQQNIQYKKCLKNENCSIMRMNRNRCQQCRFKKCLSVGMSR [H12A], the abundance fitness was -0.28 ± 0.081.
As for CKVCGDVASGFPYGVHACEGCKGFFRRSIQQNIQYKKCLKNENCSIMRMNRNRCQQCRFKKCLSVGMSR [H12P], the abundance fitness was -0.835 ± 0.22.
In the case of CKVCGDVASGFMYGVHACEGCKGFFRRSIQQNIQYKKCLKNENCSIMRMNRNRCQQCRFKKCLSVGMSR [H12M], the abundance fitness is -0.936 ± 0.28.
On to CKVCGDVASVFHYGVHACEGCKGFFRRSIQQNIQYKKCLKNENCSIMRMNRNRCQQCRFKKCLSVGMSR [G10V], for which the abundance fitness is -0.119 ± 0.38.
On to CKVCGDVASDFHYGVHACEGCKGFFRRSIQQNIQYKKCLKNENCSIMRMNRNRCQQCRFKKCLSVGMSR [G10D], for which the abundance fitness was -0.433 ± 0.22.
